The assay has as its target T1, HLA-A2.1 on T2 cells (empty or unstable surface MHC class I, with added beta-2 microglobulin) (human).
T1 construct: it is treated here as the same molecule; also called HLA-A*0201
The experiment in a line: T2 cell HLA-A2.1 stabilisation, W6/32 staining, flow cytometry.

Method: T2 cells, which express empty or unstable MHC molecules on their surfacer were washed twice and suspended at 5×10⁶ cells/ml in serum-free complete Iscove's modified Dulbecco's medium (IMDM). B2 microglobulin (Sigma, St. Louis, Mo.) was added at 5 μg/ml and the cells distributed to a 96-well U-bottom plate at 5×10⁵ cells/well. Peptides were added at 100, 10, 1 and 0.1 μg/ml. The plate was rocked gently for 2 minutes and then incubated for 4 hours in a 5% CO₂ incubator at 37° C. After the unbound peptide was removed by washing twice with IMDM, a saturating amount of monoclonal antibody W6/32 (Sigma) was added. After incubation for 30 minutes at 4° C., cells were washed with PBS supplemented with 1% heat-inactivated FCS, 0.1% (w:v) sodium azide, pH 7.4-7.6 (staining buffer), and incubated with fluorescein isothiocyanate (FITC)-conjugated goat F(ab′) antimouse-IgG (Sigma) for 30 min at 4° C. and washed four times as before. The cells were resuspended in staining buffer and fixed by adding a quarter volume of 2% paraformaldehyde.

B1: tyrosinase 207-216, FLPWHRLFLL (candidate tyrosinase housekeeping epitope) (peptide)
peptide: FLPWHRLFLL
notes: Synthetic 10-mer added to T2 cells at 100, 10, 1 and 0.1 ug/ml
As for B1, the binding result was “binds”.

The values are drawn from patent publication US20050130920A1 (published 2005).
